Assay [1] addresses T1, murine core RAG1 fused to maltose-binding protein, wild type (murine), P15919.
T1 chain: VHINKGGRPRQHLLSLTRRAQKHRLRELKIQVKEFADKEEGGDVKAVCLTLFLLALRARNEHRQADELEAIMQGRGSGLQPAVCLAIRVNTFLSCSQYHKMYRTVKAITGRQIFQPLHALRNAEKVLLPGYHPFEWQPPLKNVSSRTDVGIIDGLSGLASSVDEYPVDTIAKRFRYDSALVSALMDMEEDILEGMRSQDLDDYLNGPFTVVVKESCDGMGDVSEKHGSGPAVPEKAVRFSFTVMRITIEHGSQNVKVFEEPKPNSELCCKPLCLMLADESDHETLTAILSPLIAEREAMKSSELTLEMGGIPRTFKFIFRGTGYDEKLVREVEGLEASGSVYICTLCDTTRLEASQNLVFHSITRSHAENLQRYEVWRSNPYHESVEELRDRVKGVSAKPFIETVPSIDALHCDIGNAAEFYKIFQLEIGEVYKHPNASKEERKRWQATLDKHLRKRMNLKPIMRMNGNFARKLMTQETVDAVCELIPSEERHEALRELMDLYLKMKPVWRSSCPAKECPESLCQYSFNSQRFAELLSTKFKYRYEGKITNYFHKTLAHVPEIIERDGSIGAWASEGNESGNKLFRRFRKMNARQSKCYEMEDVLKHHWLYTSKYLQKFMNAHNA
Kind of assay: SEC. To be noted: remark: other sources report otherwise.

The target in a further assay is T2, mR1(core) E962A mutant (murine, UniProt P15919 384-1008, E962A).
T2 sequence (looked up): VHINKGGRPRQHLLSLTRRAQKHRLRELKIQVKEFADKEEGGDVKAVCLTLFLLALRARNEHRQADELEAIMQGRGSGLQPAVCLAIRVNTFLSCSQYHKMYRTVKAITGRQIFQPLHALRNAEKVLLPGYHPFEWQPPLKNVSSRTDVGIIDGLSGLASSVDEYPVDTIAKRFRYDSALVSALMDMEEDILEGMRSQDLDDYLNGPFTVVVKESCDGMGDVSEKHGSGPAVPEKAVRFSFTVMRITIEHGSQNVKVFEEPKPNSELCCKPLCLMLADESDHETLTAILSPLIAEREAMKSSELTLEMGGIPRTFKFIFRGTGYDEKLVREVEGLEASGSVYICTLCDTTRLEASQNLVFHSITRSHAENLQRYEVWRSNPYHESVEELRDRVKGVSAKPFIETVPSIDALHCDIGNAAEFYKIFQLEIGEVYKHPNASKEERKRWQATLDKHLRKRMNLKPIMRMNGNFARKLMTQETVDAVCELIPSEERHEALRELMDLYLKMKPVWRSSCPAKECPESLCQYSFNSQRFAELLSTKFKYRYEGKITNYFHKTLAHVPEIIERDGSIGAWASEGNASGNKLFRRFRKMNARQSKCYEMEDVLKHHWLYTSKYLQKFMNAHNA
Nature of the assay: pull-down.

Another assay addresses T3, mR1(core) H942A mutant (murine, UniProt P15919 384-1008, H942A).
T3 sequence (looked up): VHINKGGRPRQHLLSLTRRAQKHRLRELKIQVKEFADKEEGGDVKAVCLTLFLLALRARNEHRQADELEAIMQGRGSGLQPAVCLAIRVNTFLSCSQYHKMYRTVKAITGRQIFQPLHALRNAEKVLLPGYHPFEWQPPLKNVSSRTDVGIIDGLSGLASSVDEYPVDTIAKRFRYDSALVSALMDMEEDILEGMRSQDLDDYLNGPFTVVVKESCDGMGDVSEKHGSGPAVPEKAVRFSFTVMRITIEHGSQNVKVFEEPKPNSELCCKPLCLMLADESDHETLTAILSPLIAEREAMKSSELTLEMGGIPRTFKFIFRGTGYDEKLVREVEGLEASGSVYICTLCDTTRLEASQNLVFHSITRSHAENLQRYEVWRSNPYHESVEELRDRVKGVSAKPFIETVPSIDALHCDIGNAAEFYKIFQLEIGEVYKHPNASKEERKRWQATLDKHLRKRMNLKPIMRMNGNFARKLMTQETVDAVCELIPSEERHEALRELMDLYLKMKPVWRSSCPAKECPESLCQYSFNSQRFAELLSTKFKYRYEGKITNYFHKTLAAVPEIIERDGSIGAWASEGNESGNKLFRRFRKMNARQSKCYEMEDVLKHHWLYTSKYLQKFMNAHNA
Nature of the assay: pull-down.

Assay [2] has as its target T4, murine core RAG1 fused to maltose-binding protein, wild type (murine, UniProt P15919 384-1008).
T4 sequence (looked up): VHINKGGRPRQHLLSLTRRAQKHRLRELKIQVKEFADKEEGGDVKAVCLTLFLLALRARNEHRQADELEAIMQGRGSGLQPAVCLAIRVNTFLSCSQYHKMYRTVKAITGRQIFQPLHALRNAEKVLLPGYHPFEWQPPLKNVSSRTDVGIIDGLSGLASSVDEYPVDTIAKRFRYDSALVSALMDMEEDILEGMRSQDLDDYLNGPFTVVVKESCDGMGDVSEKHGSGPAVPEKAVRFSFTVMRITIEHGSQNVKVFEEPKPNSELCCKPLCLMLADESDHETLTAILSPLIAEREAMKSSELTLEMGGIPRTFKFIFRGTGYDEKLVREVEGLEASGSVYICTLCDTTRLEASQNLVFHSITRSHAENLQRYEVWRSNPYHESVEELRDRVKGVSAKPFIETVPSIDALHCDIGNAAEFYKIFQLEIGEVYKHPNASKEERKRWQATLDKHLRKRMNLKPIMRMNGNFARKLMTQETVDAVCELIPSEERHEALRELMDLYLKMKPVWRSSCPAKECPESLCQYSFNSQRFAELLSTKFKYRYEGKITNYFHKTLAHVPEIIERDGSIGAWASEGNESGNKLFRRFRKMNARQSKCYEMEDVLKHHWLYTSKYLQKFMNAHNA
Nature of the assay: pull-down.

The target in the next assay is T5, mR1(core) H937A mutant (murine, UniProt P15919 384-1008, H937A).
T5 sequence (looked up): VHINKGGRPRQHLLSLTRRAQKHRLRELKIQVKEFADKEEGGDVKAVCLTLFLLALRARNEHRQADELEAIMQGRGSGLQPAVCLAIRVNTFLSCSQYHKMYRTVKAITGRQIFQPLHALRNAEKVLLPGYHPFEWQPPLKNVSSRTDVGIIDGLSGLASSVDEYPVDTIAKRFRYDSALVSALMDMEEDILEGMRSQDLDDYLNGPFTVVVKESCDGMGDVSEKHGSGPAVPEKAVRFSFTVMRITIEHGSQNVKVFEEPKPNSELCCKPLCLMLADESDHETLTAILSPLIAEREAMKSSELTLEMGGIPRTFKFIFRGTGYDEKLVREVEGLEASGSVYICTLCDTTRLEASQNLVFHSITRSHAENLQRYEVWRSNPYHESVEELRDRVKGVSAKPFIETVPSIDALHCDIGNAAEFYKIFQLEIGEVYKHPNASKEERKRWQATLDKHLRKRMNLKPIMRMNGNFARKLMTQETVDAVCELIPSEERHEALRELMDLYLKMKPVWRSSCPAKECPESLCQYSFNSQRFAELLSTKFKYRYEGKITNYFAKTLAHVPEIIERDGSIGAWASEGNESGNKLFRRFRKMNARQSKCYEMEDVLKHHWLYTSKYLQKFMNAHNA
Kind of assay: pull-down.

B1: murine core RAG1 fused to maltose-binding protein, wild type, P15919 384-1008 (domain or fragment)
chain: VHINKGGRPRQHLLSLTRRAQKHRLRELKIQVKEFADKEEGGDVKAVCLTLFLLALRARNEHRQADELEAIMQGRGSGLQPAVCLAIRVNTFLSCSQYHKMYRTVKAITGRQIFQPLHALRNAEKVLLPGYHPFEWQPPLKNVSSRTDVGIIDGLSGLASSVDEYPVDTIAKRFRYDSALVSALMDMEEDILEGMRSQDLDDYLNGPFTVVVKESCDGMGDVSEKHGSGPAVPEKAVRFSFTVMRITIEHGSQNVKVFEEPKPNSELCCKPLCLMLADESDHETLTAILSPLIAEREAMKSSELTLEMGGIPRTFKFIFRGTGYDEKLVREVEGLEASGSVYICTLCDTTRLEASQNLVFHSITRSHAENLQRYEVWRSNPYHESVEELRDRVKGVSAKPFIETVPSIDALHCDIGNAAEFYKIFQLEIGEVYKHPNASKEERKRWQATLDKHLRKRMNLKPIMRMNGNFARKLMTQETVDAVCELIPSEERHEALRELMDLYLKMKPVWRSSCPAKECPESLCQYSFNSQRFAELLSTKFKYRYEGKITNYFHKTLAHVPEIIERDGSIGAWASEGNESGNKLFRRFRKMNARQSKCYEMEDVLKHHWLYTSKYLQKFMNAHNA
Consider B1, for which the stoichiometry N in assay [1] came out at 2.

B2: core RAG2 fused to glutathione S-transferase (domain or fragment, murine, UniProt P21784 1-387, looked up)
chain: MSLQMVTVGHNIALIQPGFSLMNFDGQVFFFGQKGWPKRSCPTGVFHFDIKQNHLKLKPAIFSKDSCYLPPLRYPATCSYKGSIDSDKHQYIIHGGKTPNNELSDKIYIMSVACKNNKKVTFRCTEKDLVGDVPEPRYGHSIDVVYSRGKSMGVLFGGRSYMPSTQRTTEKWNSVADCLPHVFLIDFEFGCATSYILPELQDGLSFHVSIARNDTVYILGGHSLASNIRPANLYRIRVDLPLGTPAVNCTVLPGGISVSSAILTQTNNDEFVIVGGYQLENQKRMVCSLVSLGDNTIEISEMETPDWTSDIKHSKIWFGSNMGNGTIFLGIPGDNKQAMSEAFYFYTLRCSEEDLSEDQKIVSNSQTSTEDPGDSTPFEDSEEFCFS
As for B2, the binding result (in the assay with mR1(core) E962A mutant; in the assay with mR1(core) H942A mutant; in assay [2]; with mR1(core) H937A mutant) was “binds” throughout.

The stoichiometry N is the number of molecules, sites or subunits per partner or assembly.

Values taken from publication PMC2782368 (Journal of molecular biology, 2009).
